Source: paper PMC8278045

How the values were obtained:
Assay in all cases: affinity purification with mass spectrometry; GFP pull-down (µMACS/MultiMACS GFP Isolation Kit beads) from thylakoid membranes of GFP-labelled Syn7942 strains solubilised with 1% digitonin; label-free LC-MS/MS, abundances normalised to GFP, WT strain as control, triplicates
[1] = biological target: PsaE of Photosystem I labelled with enhanced GFP (PSI–GFP) (Synechococcus elongatus PCC 7942) (UniProt Q31NL7)
[2] = biological target: PsbB (CP47) of Photosystem II labelled with enhanced GFP (PSII–GFP) (Synechococcus elongatus PCC 7942) (UniProt P31094)
[3] = biological target: PetA of Cytochrome b6f labelled with enhanced GFP (Cyt b6f–GFP) (Synechococcus elongatus PCC 7942) (UniProt Q31NV8)
UniProt Q31NV8, sequence (Q31NV8 31-324): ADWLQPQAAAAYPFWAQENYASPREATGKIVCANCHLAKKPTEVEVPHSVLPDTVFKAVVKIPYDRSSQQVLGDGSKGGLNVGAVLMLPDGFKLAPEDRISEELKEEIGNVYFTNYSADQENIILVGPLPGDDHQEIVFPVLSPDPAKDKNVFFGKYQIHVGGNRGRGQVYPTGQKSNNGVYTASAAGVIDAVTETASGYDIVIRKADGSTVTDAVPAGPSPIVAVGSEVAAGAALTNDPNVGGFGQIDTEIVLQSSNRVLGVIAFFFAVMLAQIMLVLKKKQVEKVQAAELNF

UniProt P31094, sequence (P31094 whole entry): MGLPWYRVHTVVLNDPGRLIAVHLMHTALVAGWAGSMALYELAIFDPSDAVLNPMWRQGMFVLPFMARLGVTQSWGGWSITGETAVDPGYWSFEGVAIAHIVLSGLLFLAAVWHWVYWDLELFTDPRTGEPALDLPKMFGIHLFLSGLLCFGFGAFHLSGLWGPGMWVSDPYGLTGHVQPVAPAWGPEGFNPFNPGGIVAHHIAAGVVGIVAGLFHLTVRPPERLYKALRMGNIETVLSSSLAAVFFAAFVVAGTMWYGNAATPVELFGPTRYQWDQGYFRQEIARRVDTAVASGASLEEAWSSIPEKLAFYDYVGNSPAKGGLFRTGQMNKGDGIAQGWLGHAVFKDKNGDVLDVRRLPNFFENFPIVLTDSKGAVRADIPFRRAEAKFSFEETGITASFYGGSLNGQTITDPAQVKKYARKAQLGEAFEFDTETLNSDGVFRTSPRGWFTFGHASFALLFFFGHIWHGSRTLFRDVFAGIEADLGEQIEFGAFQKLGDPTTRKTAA
UniProt Q31NL7, sequence (Q31NL7 whole entry): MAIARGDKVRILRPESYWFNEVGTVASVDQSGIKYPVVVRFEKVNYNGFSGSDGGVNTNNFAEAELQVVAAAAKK

Work on “Cytochrome b6f (Cyt b6f) (from UniProt Q31KG3 1-37) (complex)” yielded a percent of PSI associated with Cyt b6f [1] of 0.3% and a percent of PSII associated with Cyt b6f [2] of 1.98%.
With “Photosystem I (PSI) (from UniProt P0A421 1-139; P0A402 24-164; P0A426 5-83) (complex)” the percent of Cyt b6f associated with PSI [3] was 4.1% and the percent of PSII associated with PSI [2] was 9.9%.
Work on “Photosystem II (PSII) (from UniProt P31094 1-508; Q31M07 29-136; Q31LM9 31-167; Q31LS7 1-40) (complex)” yielded a percent of Cyt b6f associated with PSII [3] of 2% and a percent of PSI associated with PSII [1] of 1.72%.
